Patent US20120294860A1 (TORAY INDUSTRIES, published 2012)

T1: human CAPRIN-1 protein expressed on the surface of human cancer cells (human, UniProt Q14444 2-709)
T1 sequence: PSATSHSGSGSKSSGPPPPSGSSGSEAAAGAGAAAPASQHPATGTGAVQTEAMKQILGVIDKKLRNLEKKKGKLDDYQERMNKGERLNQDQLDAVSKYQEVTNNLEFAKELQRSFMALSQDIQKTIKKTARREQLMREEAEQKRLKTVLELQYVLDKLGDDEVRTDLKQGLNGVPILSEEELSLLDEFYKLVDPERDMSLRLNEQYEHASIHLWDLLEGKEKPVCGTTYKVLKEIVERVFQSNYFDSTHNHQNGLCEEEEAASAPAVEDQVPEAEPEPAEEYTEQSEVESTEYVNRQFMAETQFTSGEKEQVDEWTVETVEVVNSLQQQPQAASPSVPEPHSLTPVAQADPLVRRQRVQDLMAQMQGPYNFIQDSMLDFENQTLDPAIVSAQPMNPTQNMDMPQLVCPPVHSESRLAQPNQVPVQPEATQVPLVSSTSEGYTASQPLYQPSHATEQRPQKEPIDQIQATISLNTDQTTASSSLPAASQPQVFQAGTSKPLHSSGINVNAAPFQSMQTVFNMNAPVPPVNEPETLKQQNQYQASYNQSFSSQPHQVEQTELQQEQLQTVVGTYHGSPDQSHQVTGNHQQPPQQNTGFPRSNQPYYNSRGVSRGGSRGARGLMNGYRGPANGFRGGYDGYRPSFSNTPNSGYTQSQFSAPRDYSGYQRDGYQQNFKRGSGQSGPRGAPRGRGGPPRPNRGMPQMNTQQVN

B1: anti-CAPRIN-1 monoclonal antibody #1 (antibody, V domains shown)
VH: EVQLHQFGAELVKPGASVKISCKASGYTFTDYNMDWVKQSHGKSLEWIGDINPNYDSTSYNQKFKGKATLTVDKSSSTAYMELRSLTSEDTAVYYCARSRSYDYEGFAYWGQGTLVTVSA
VL: DIQMTQSPASLSASVGETVTITCRASGNIHNYLAWYQQKQGKSPQLLVYNAKTLADGVPSRFSGSGSGTQYSLKINSLQPEDFGSYYCQHFWSTLTFGAGTKLELKR
B2: anti-CAPRIN-1 monoclonal antibody #3 (antibody, V domains shown)
VH: B1 VH
VL: DIQLTQSPASLSASVGETVTITCRASGNIHNYLAWYQQKQGKSPQLLVYNAKTLADGVPSRFSGSGSGTQYSLKINSLQPEDFGSYYCQHFWSTLTFGGGTKLEIK
B3: anti-CAPRIN-1 monoclonal antibody #4 (antibody, V domains shown)
VH: B1 VH
VL: SGDRVSLSCRASQSISNYLHWYQQKSHESPRLLIKYASQSISGIPSRFSGSGSGTDFTLSINSVETEDFGMYFCQQSNSWPYTFGAGTKLEIKQ
B4: anti-CAPRIN-1 monoclonal antibody #7 (antibody, V domains shown)
VH: LQESGAELARPGASVKLSCKASGYTFTSYWMQWVKQRPGQGLEWIGAIYPGDGDTRYTQKFKGKATLTADKSSSTAYMQLSSLASEDSAVYYCARGEYGNYFAYWGQGTTVTVSS
VL: TSDASLGERVTITCKASQDINSYLSWFQQKPGKSPKTLIYRANRLVDGVPSRFSGSGSGQDYSLTISSLEYEDMGIYYCLQYDEFPLTFGGGTKLEIKQ

What follows are binders tested against T1, human CAPRIN-1 protein expressed on the … (assay: cell-based or functional assay).

Binder | ADCC activity against MDA-MB-157 [%] | CDC activity against MDA-MB-231V [%]
B1 | ≥ 20 | ≥ 30
B2 | ≥ 20 | ≥ 30
B3 | ≥ 20 | ≥ 30
B4 | ≥ 20 | ≥ 30
